Assay results as given in paper PMC12487865.

Target: FGFR1 (UniProt P16092)
Assay: co-IP, Nf2-Flag mutants with FGFR1-HA
Conditions: reference: wild-type Nf2

| binding against the reference (sites S315) | binding against the reference (sites S518) | Substance |
| --- | --- | --- |
| lost |  | Nf2 (Merlin) (from UniProt P46662) S315A |
|  | lost | Nf2 (Merlin) (from UniProt P46662) S518A |
